For four substances, lysozyme carrying rate (actual measurement value) and lysozyme carrying rate results are on record in patent US20190017046A1.

The target of assay [1] is lysozyme, fluorescence-labeled with Alexa Fluor 488. The assay can be described thus: fluorescent lysozyme retained in the sponge after 3 h in 10x diluted PBS; supernatant fluorescence, plate reader.
The target is the same in assay [2]. The assay can be described thus: grade of lysozyme carrying rate in the summary table (A: equal to or higher than 50%).
Assay [3] shares this target. The assay can be described thus: grade of lysozyme carrying rate in the summary table (B: 25% or higher and less than 50%).
For assay [4] the target is unchanged. In words: grade of lysozyme carrying rate in the summary table (C: less than 25%).

Where only a bound is given, the exact number is not on record here.

Turning to “member for a preparation "A": thermally crosslinked substance of CBE3 and succinylated CBE3, molar ratio of CBE3 to succinylated CBE3 = 1 to 3”, in assay [1], the lysozyme carrying rate (actual measurement value) came out at 71%. This substance also had a lysozyme carrying rate in assay [2] of over 50%. Consider “member for a preparation "B": thermally crosslinked substance of CBE3 and succinylated CBE3, molar ratio of CBE3 to succinylated CBE3 = 1 to 1”, for which the lysozyme carrying rate (actual measurement value) in assay [1] came out at 66%. The substance “member for a preparation "C": thermally crosslinked substance of CBE3 and succinylated CBE3, molar ratio of CBE3 to succinylated CBE3 = 3 to 1” displayed a lysozyme carrying rate in assay [3] of 25 to 50%. The lysozyme carrying rate (actual measurement value) in assay [1] stood at 38%. “member for a preparation "G": thermally crosslinked CBE3 only, molar ratio of CBE3 to succinylated CBE3 = 1 to 0” had a lysozyme carrying rate (actual measurement value) in assay [1] of 8%. In assay [4], the lysozyme carrying rate is under 25%.
